Results as given in patent publication US20090010911A1, “METHODS AND COMPOSITIONS FOR AFFECTING CYCLOPHILIN A REGULATION OF KINASES IN MODULATING CELLULAR ACTIVITIES” (IOWA STATE UNIVERSITY RESEARCH FOUNDATION, INC., priority 2007, published 2009).

T1: Itk kinase domain (Mus musculus, UniProt Q03526)
T1 construct: Purified 0.5 μM FLAG-tagged Itk kinase domain (Itk KD) immobilized on an anti-FLAG-resin; made in house; host or cells: Sf9 insect cells (baculovirus)
T1 sequence (Q03526 368-620 limits assumed): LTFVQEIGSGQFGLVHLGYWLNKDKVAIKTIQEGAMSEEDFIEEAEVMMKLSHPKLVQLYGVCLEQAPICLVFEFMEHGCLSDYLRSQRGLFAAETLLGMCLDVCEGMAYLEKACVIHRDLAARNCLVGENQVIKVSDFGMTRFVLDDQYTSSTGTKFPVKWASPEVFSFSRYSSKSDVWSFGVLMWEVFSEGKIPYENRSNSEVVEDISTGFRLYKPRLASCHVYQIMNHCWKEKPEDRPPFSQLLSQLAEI


Molecular target: T1, Itk kinase domain
Assay: Pull-down assay of SH2 domains with Itk kinase domain
Assay type: binding
Conditions: purified tagged proteins
Method: 3(a) Empty anti-FLAG resin (lane 1) or purified FLAG-tagged Itk kinase domain (Itk KD) immobilized on an anti-FLAG-resin (lanes 2 and 3) were incubated with purified myc-tagged control protein (lane 2) or myc-tagged Itk SH2 domain (lanes 1 and 3) in a pull-down assay. […] 3(b) Purified FLAG-tagged Itk KD (lane 1) was incubated with GST (lane 2) or GST-PLCγ1 C-terminal SH2 domain (GST-PLCγ1 SH2C) (lane 3) each immobilized on glutathione beads in a pull-down assay. […] One μM Itk 32 (lanes 1 and 3) or Itk 32 (R265K) (lanes 2 and 4), were incubated with 250 nM FLAG-tagged full-length Itk in an in vitro kinase assay. Lanes 1 and 2 are no enzyme control. […] One, 3, 5 and 10 μM PLCγ1 SH2C-Y783- (d) or PLCγ1 SH2C(R964A,R696A)-Y783- 3(e), were subjected to phosphorylation by 1.2 μM full-length FLAG-tagged Itk. Lanes 5 and 6 (containing 1 and 10 μM substrate, respectively) are no enzyme controls. Coomassie stain of the gels and anti-FLAG blots (bottom panels) show protein levels. (f & g) Interaction between the SH2 domain and Itk kinase domain is independent of the phosphorylation status of the kinase domain. […] Itk KD that is co-expressed with Lck but also pretreated with alkaline phosphatase is not phosphorylated (lane 3). […]

Row | interaction with Itk kinase domain (pull-down) | Molecule
1 | interacts directly | PLCγ1 SH2C domain: isolated carboxy-terminal SH2 domain of PLCγ1 (protein) QTNAHESKEWYHASLTRAQAEHMLMRVPRDGAFLVRKRNEPNSYAISFRAEGKIKHCRVQQEGQTVMLGNSEFDSLVDLISYYEKHPLYRKMKLRYPI
2 | interacts directly | Itk SH2 domain: isolated exogenous SH2 domain of Itk, purified from bacteria (protein) EWYNKSISRDKAEKLLLDTGKEGAFMVRDSRTPGTYTVSVFTKAIISENPCIKHYHIKETNDSPKRYYVAEKYVFDSIPLLIQYHQYNGGGLVTRLRYPVCSWRQKA
